From article PMC5586343, “t‐Darpp is an elongated monomer that binds calcium and is phosphorylated by cyclin‐dependent kinases 1 and 5” (FEBS Open Bio, 2017)

Target: the molecule itself
Experiment: cross-linking; glutaraldehyde 0.1% (v/v) and 1% (v/v), 30 min at 25 °C, then SDS/PAGE; each protein alone and an equimolar mixture of t‐Darpp and Darpp‐32

B1: Darpp‐32 (dopamine‐ and cAMP‐regulated phosphoprotein) (natural protein, human, UniProt Q9UD71-1 1-204, looked up)
chain: MDPKDRKKIQFSVPAPPSQLDPRQVEMIRRRRPTPAMLFRLSEHSSPEEEASPHQRASGEGHHLKSKRPNPCAYTPPSLKAVQRIAESHLQSISNLNENQASEEEDELGELRELGYPREEDEEEEEDDEEEEEEEDSQAEVLKVIRQSAGQKTTCGQGLEGPWERPPPLDESERDGGSEDQVEDPALSEPGEEPQRPSPSEPGT
notes: Darpp‐32, longer isoform of PPP1R1B with 36 additional N-terminal residues compared with t‐Darpp; cDNA amplified from Darpp‐32/pET‐49 and cloned into pET‐28a; source: E. coli BL21 DE3, purified (Ni‐NTA)
Q: For B1, which “stoichiometry N” value is on record?
A: 2
